The domain aggregation screens of Martell et al. (2025)

assay: soluble fraction after stress (log2 fold change); higher = more stays soluble; pooled small domains, quantitative proteomics; details: stress: pH 4
Method in brief: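 High-throughput quantitative proteomics was run on pooled custom libraries of small protein domains following pH 4 stress. Fold changes are on a log2 scale; higher values mean more of a domain remained soluble. The fold change in soluble amount is taken as a measure of aggregation propensity.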

Row | Sequence | soluble fraction (log2)
1 | HMKLEEITIIVPSLRLDNFVSDLARTSRSKAVQIIDSERVFINGQNETKASKQVKLGDVITSA | -0.767
2 | HMHHIDTAWFRGKMREHRLTQEAVGQAIGLERSMVSKIIKGTVSFNARKASAWAQLLRVSESEILERVGI | -0.379
3 | HMSIQDLMNSKDLSGFKVEMLSNEDIVKYKSMLQSSGFSESQAEQLALQRGLPTSELIKLRTRISDVAVT | 0.17
4 | HMKTLGMDKGVNIALNDAGLRAEDVSNLSAHYDTEDGVPVYEIKFTAGGFSYEYQIKASDGTIIEADRDAA | -0.0393
5 | HMEKLSMLKIKELFRLAIEMNLSHRQIAQSLNVSHTVVNRYLKRFKKSNLSYETLLKLGDKEIISALYEH | -0.0551
6 | HMNVNALIGQEGIVIKEINSGSNKIGQVKISGDTWSAVTTNDFTNAIPVGSNVKILKIDGVNLIVEPVY | 0.207
7 | HMDIKKHISATLKREMEKRGLNFMEFSTELGIPRTTLQGYLKGTSSPQADSLEELADKLGISPAELVSG | -0.434
8 | HMPDKIDSAAQGILDKLIRNDGFMAVTDKSPPEAIYKLFGVSKKVFKQAIGSLYKNRLITIEDAGLRIIPQ | -0.214
9 | HMEPAPELTPREQQVLARIALGMTDKAIAEELGVSHQTVRNHVARIYQKIKVHSRSQAVVWAREKGI | 0.0801
10 | HMWPQIAGFADRFGLSDTERRIVTLMSHGRSRKIIASTLGYSQNTIRNYTRNIYAKAGVHSKQELLDLLDP | -0.117
11 | HMTVLIDEQSSDGLLKITVTANTAVKSITIADELLEDKEQLEDYLILVLNKAIARANQVNQTELDAVAK | 0.163
12 | HMIIDTELMTRVMKFGFSQADASDLVAQHSDDLLRTAISRVEARAESKGMTPLETPAGYFRWTLQDLVRNP | -2.02
13 | HMVTDVDELEKLIQKVLDSNSSQVDEYRQGKEKVFGFFVGAVMKLTKGQADPDVVNQLLKEKLSGRK | -0.0516
14 | HMFAGEWKQDASGWWYQNDDGSFTRNGWQNISGKQYYFNENGYMLHDTTTPDGKQVGSDGSLV | -0.389
15 | HMPLEQAELRLDLKQAILQMDRQTQELLLLRYVDGLSPGEAGKVLELSRFAVYRREKEALRKLRDYFSH | -0.834
16 | HMHEYSDIEHRILDAAREVFIRKGYDSATMGDIALLAGMSRTSVNYYFRNKERLFEAIFEEII | -1.25
17 | HMKQAINFSDLNSLEEGLGIAIRQKWNEVSINDVPEDKIELVEDWINNNRGKYKGINISIGSTY | 0.0722
18 | HMGYDLLFQQALGFHEQGRLNEAENIYRQILETAPNNPDILNLLGLIAQQKGLHAQAVDYFYQAIRL | -1.9
19 | HMRGLVPEIVGTLEGEIRAGTLAVGQKLPTEAEIMARFDVSRTVVREALSRLQASDLVETRHGIGTFVSAR | 0.163
20 | HMLESVMHSRIAEIISREGTAPAHMSMQEKIRVVHKLDADGILMMKGAVAEIADQLSVSVPTIYRYLNKPQ | ≥ 0.43
21 | HMPHFFISTSDVNQDIITVSDKENFHHIARVLRSKVGETLLLVDENRTQYKVVIQNIDSKSITTKVVETLK | -0.697
22 | HMTYSAWIEKAYSELEKKGITEAELSDALDKRGINLEDLKLMGPDEAVKYQSEVEGVVLELSKSKE | -0.319
23 | HMVIVGGDVIVHYVDTEGKKISDDVVKSGNVGEDYSTDQKTILGYRFKEVQGNTSGKFTDKTQVVTYIYT | 0.179
24 | HMKKHALFTLFKHHNANGTTVWYARFWDDATQRYAIARSTGVLAQGKRERHDEAITVAREMASSIQFS | 0.264
25 | HMKFKDYYAALGIDRNADLEQIKKAYRKLARQYHPDVSKAPDAEARFKDAAEAYATLKNPEKRAAYDELGS | 0.22

Row | Sequence | soluble fraction (log2)
26 | HMGRSTQVPGVEKMTYSQAVQLLHDHGFRVDIRDSLYRDDIKPGHVIEQFPKAKSIVKPGRKIFLYINAV | 0.105
27 | HMGIVTMPGQGSKMRFDFDATGDLPSSTSWRGMFAYANNTKRAYVSTGTTMGGYNGWRQLIAMDEYGNYQT | 0.22
28 | HMSDFSSNLRRLRKRAGLSQDALAEKLSVARQTVSSWERGNSYPDLDMLVRISDALATDPNELLYPN | 0.0655
29 | HMSVTYRYSYVYNGNTYSDGWSVRRAIENNENKRFGPEPSDLDHEAQKQARVTFWAEHGVEYKEQEVV | -0.423
30 | HMAMKFQDIVRQKRKELGLTQEQAARRLGVSPAAVSKWESGQSLPDTPLFAPLARLLHTDLNTLLSFE | -0.34
31 | HMKSKNILLGEYKGKEVHVGEGKYGPFILYDKKFKSIGAYLTENSLMLKDLTIEDYSKIMKFTENSNSKS | 0.0285
32 | HMSRARSRQTSMLEAVAGLGPARRRALLKQFGGLQGVLRAGIEDLSRAPGIGPALAQAIFEHLHPGA | -0.0797
33 | HMSSDKVWSFEASGKQLQASYVAFENETVYLRASEDGSLLQFPLTDFGMKDQLVVLELYELSAKINRSN | -0.779
34 | HMSPDLNEVEEKVFRALNGVESMHVNKLGIELNLPVSELFFTLLELEMKNVVKALPGGMYKL | -1.1
35 | HMTTMNSADLIKELEKAGWTLRGVKGSHHIYTHPARGGHLSVPHPKKDLGAGLARQLRKQAGL | 0.346
36 | HMRDISTDTSAWTFQDIKRYYDPQDLLTEKQVGQALSLIKGRNLNPLLNEVYIVAYKKKNGGAEFSLIV | -0.286
37 | HMGPPAVGSKLQDARKAQQLSLDELSKRAGVSKSMLSEVERNQANPTVGVLWRLATALGISLTDLLG | -0.549
38 | HMANLAQITKTNAVALALKDVGAYNSEDLMKFIDLDKVVLGEDGKPQLEDTINSLKESSPYLFQ | -0.843
39 | HMRKYEAVPASVVPAQIQEYVAKSNFPNQYIRKIERNKYTWEIELSNGLEIKFDRQFNVIGFD | 0.338
40 | HMSRIDRKGLTSQIVNHLSKNPGKNFTLKQFFRNLKLNTHPLKMLAVDVLNKLLDTNFITRNEDGEFFLKA | -0.123
41 | HMAHESYVKEQLLLSLTNHEDPIMQISLIEQLTKMHERNIIHELEKLTVDVQTNEEVKVQAYASLLILS | -0.962
42 | HMHLPDNAVSIISELKMTPEEVLELIGKLPHDFLFLPYSQRKKIIVDLIPNKDYKLLMSLIKKFML | -0.536
43 | HMWPTPRTWSALMNELNLYKENHGYANIVDIPSEKIRRMADGIIGEDMAVRYVAFLQSHASS | -0.614
44 | HMQKPDIEVDFAEGDMVVVTGGAWKDTAGVITGINMQKQTVTINVELFGRETPVEISFTEIKKA | -0.799
45 | HMPANVELLRTFTNKTGTKIKARIVAVSDNKVKLIRDDSKKFIVPIDSLSEEDQKYLKDWIANEVGEQ | 0.133
46 | HMPTLLGYKHILSAWNPDTNTVFRTSYGYDGEYGSREEAMQALIKMIQEGGKATPRGIEESEVPIY | 0.0029
47 | HMEGTEILVNIRKGMTKEEIASLLVSKGLVEDKNTFLVQTALYTSDRYPIQPGSYTLNTAQTPEEMLAVMT | -0.073
48 | HMRTEGNLGAKVRVLRRSQGMTQAELARRLGISPSYLNLIEHNRRSFTADLLVKLAKILPVNLKT | 0.04
49 | HMEGLATRLRFLRQARGLSYHALARLSGVTHTALHQIEAGKNIPGLDTAEKIAMALDVDPRWFAYGRGDPS | -0.578
50 | HMKVEIVRVVKDIHIGDEITKDMVRTVEVGGYNLPDGVVKDTATVIGRFASADMVPGDYIISSKIADAP | 0.0866

Row | Sequence | soluble fraction (log2)
51 | HMRQMSEELQSAKEALEDRRTQEKAVLLLMEHRNISNDEAHRLLRKLAMDQGKRLPEVARALVSMAGVL | -0.203
52 | HMGEIVVPDLIGKSLTEATRILSDSTLTVGKVNYQISSTLLPNTVLDQYPAPGNKLNSGNTVDLFITKE | -0.0586
53 | HMSLLTPLEEARIVIEELIIPQKLTLDLLPQNSQIRKLQHEIINHYRLKGISIGDGKNRRVRIYS | -1.48
54 | HMLDLSDFEVVRDLYLSEQIWNVGDLIIARSKKDDTYKAWEIIRKGTNYVTGIDESHKVEKIWLHDILI | -1.1
55 | HMDEPGTGFKWREDVLLRVMEANGIDTSHRDDFVRHAVKFDNDDNLYLKKAEIEDAAAAWVSEHS | -1.59
56 | HMNKEDIASNEKLLGLLNHMSKVLKDIDFIKDDRPMIVRKINHIFKKATLSEEEINILRGVLSAIENHS | -0.104
57 | HMTMIIQLDKNITQEQRQFLVEELNRLSISPNFVSTQFTNYIVGIPKKEFDIRLIGNLPGIADIHFV | -0.269
58 | HMTKIEYTEQEFNDFIQAYKNNRKMFPEDYIVKTQVVFINKGFSKSQADMIIAQIETRLRLQGE | -0.378
59 | HMSKKQEQALQSREKLLDAATALFAEHGYRDTSVQAIGEKAGVSRGSIFWHFGSKEGLLWAVVERAFTA | 0.346
60 | HMGVRDIRIFERNNSFFVNAEIRGEAQLSVPITRTDYQLFKENKIDALSLVEKYYAEELNASNEMK | 0.155
61 | HMRRMTEEQSKLFQGLVSIVQTTLVADMEKGAVTPLLIAEKVDFVADNLYPGKDIDRKEAVAELIRRFSLW | -0.875
62 | HMSKMVEMSQEKSREKVARVKIEIQKMLDRKERVTVSGLERATGFSNSFFYRNEEVNQAVKEAQLKQ | 0.0693
63 | HMESRMTYLQKTKLATENLDAKLIDHQQWVAEVLGEDYRGVYSDEYLRRAAKVFAIFVNNLDD | -1.41
64 | HMKTMTTIRKGSRGDTVATLQRKLNLIADGIFGPITDEAVRDFQKSHGLAVDGIVGPKTWAALGVGS | 0.354
65 | HMADMKIHLRPYAHDTNRWHVDIRLMHPTAATEIRKRLVAPAGLSEAQARAWGERQVPTILGKALGVI | -0.042
66 | HMNDNQNKQMLWELLKDNRAFDNFDNKDYKTIIHLFNETVNTIDHRTPNLDLIKKNKIFIQDIMQKLSNL | -1.04
67 | HMTKQMELLAQGAAKLSVDLNQRQLDQLQTYYRELVDWNQRMNLTAITQYEEVQVKHFLDSL | -0.294
68 | HMYLELVTKEGGSFDEPDYWGRRKLAYEIAGKTEGNYVVVKYTAEPATSDELDRVLNLNESVIRTKILRK | -0.461
69 | HMNDIVKIYTTHRIINIEGLAKNEPIMLYTINGTLIDKSVSSNGSAQLHVKGIGVYLVKWANNIVKVIVPN | 0.199
70 | HMKVIETKYNTYVVKSGDTLYSVAKKYGISVTELKEINDLSNNTLSIGQKLLVPATTIIIDE | -0.525
71 | HMEIEEIDYGTFLQMVEDGVVEKIELTDTQIFLTSTVDNDDKVYTTGVMPDQDLTNRLIEAGVVNFGKVV | -0.956
72 | HMNVEGEVVVPNVIGRTMKDVAVILSDLGLRMEAEGTGVAKSSQPQHGTSVKRGTVVQVRFEPLSVN | -0.201
73 | HMSSVRDNGDLELVPGDRIRHDDYGEGRVTAVTGVGSKRIAHAVFDSVGERKLLIKLSPIEKI | 0.235
74 | HMTKPLHELLSQREFQVFTQLAAGRSVGEIAQQLSLSSNTVSTYRARILEKTGTRNDVELALYAIRR | -0.231
75 | HMHSLLDDIPNVGEKRKRILLTHFQSLEEIKAATVEELERLPQINRKAAESIYTFFHSQPIR | 0.139
